Reference: patent US20220017623A1, “TREATMENT OF CANCER USING A CEA CD3 BISPECIFIC ANTIBODY AND A WNT SIGNALING INHIBITOR” (Hoffmann-La Roche Inc., priority 2019, published 2022)

Target: Carcinoembryonic antigen (CEA) (human) (UniProt P06731)
Test: cell-based or functional assay

Carcinoembryonic antigen (CEA) (human), sequence (P06731 35-702): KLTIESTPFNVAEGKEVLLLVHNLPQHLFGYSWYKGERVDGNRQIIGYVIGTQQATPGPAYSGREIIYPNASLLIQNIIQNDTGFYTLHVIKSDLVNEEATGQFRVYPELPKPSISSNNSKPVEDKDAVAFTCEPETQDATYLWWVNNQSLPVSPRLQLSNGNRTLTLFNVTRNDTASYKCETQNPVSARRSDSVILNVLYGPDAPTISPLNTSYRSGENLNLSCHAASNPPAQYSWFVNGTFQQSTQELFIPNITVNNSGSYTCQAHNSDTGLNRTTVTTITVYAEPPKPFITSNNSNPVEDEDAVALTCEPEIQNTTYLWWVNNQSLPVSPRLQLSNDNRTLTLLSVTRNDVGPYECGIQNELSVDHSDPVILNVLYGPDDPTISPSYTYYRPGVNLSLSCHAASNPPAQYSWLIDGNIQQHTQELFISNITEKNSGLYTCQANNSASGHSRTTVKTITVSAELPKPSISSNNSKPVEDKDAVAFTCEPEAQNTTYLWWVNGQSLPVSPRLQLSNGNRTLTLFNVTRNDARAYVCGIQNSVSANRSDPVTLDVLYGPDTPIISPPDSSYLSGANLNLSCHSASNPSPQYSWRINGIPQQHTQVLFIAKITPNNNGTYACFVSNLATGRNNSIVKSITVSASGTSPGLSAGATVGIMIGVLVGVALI

Pearson correlation of growth reduction with the fraction of CEAhi cancer cells in each PDO: 0.915 r
Substance: cibisatamab (bispecific antibody)
